Assays:
[1] = OTA detoxification activity assay (specific activity, fluorescence reduction ex/em 390/450 nm); type: biochemical; conditions: SEQ ID NO: 1 = 100%
Method in brief: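 Recombinant enzyme preparation with 200 ng/mL OTA in 100 mM sodium phosphate, at pH 6.0 and pH 7.5, 37° C. Degradation followed as the fall in fluorescence at ex/em 390/450 nm. Specific activity taken from the initial linear slope; one unit degrades 1 μmol OTA per min at a starting OTA of […].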

[2] = Enzymatic activity comparison: activity remaining after 65° C. for 10 min at pH 6.0, relative to SEQ ID NO: 1; type: physicochemical
Method: To compare the temperature behavior and thermostability of selected enzymes to one another, enzyme was incubated at 65° C. for 10 min at pH 6.0. The enzymatic activity remaining after incubation was compared to the remaining activity of the enzyme of SEQ ID NO: 1 after incubation, the latter being set to 100%, see Table 16.

| Molecule | Specific OTA detoxification activities in % compared to the enzyme of SEQ ID NO: 1, pH 6.0 [1] | Specific OTA detoxification activities in % compared to the enzyme of SEQ ID NO: 1, pH 7.5 [1] | Enzymatic activity remaining after incubation, compared to SEQ ID NO: 1 (set to 100%) [2] |
| --- | --- | --- | --- |
| 316 (protein, exemplary polypeptide) MTTRTRILTAFLSLLAANACAADAAPAAPETVVLRCARMFDGASGKLVDNPQLTIVGNKIVRIAQGDKAEVPAGAEVVDLGDATCLPGFIDAHVHLVVQDSDQYRPRAYKDWQRFPAEHALRGAYWARIELEAGFTSVRDVAERDWVALGLRNAIDAGKVPGPRMLVSNFPVGSTSGHCDMDSVPPNRLPLVGPLQGTCNGPEECRAAVRYQIKYGANVIKFCPSSGAITFSNPADAPQLSPDEMNAVIGESEAWGRYVAAHAQGDKAAKMAVAAGVRSIEHGTFIQDDTLRAMKAKNVCLVPTISGVCEAEAQIGCYPPVMAEKGRAGMASMRQTFREAVQIGVPIALGTDSALPANGSQAREFRYMVENGLTPAQALLAGTANAARCLGTFDRVGTLEAGKLADVVAVPGNPIADITVTERPLFVMKDGVVVRRDAVR | 62% | 61% | 25% |
| 83 (protein, exemplary polypeptide) MTTRTRILTAFLSLLAANACAADAAPAAPHTVVLRAARMFDGASGKLVDHPQLTIVGNKIVRIAQGDKAEVPAGAEVVDLGDATLLPGFIDAHVHLSGQSSDNWYGDFFDNMMRFPAEQALYGAYYARITLEAGFTSVRDVGSTDWVALGLRNAIDAGKVPGPRMLVSNYAVGSTGGHADQDPIPPHKLPLAGPLQGVCNGPEECRAAVRYQIKYGANVIKFMPSGGVISLSDPVDAPELSQDEMNAVIGESHAWGRKVAAHAHGDKAAKMAVAAGVDSIEHGSFIEDDTLRAMKAKNVYLVPTISAIAHVEEKIGTFPPVIAEKGRAAAAHLRQTFRHAVQIGVPIALGTDAGVGAHGSNAREFRYMVENGLTPAQALLAGTANAARLLGTFDRVGTLEAGKLADVVAVPGNPIADITVTERPLFVMKDGVVVRRDAVR | 63% | 90% | 19% |
| 84 (protein, exemplary polypeptide) MTTRTRILTAFLSLLAANACAADAAPAAPHTVVLRAARMFDGASGKLVDHPQLTIVGNKIVRIAQGDKAEVPAGAEVVDLGDATLLPGFIDAHVHLSGQSSDNWYGDFFDNMMRFPAEQALYGAYYARITLEAGFTSVRDVGSTDWVALGLRNAIDAGKVPGPRMLVSNYAVGSTGGHADQDPIPPHKLPLAGPLQGVCNGPEECRAAVRYQIKYGANVIKFMPSGGVLSLSDPVDAPELSQDEMNAVIGESHAWGRKVAAHANGDKAAKMAVAAGVDSIEHGSFIEDDTLRAMKAKNVYLVPTISAIAHVEEKIGTFPPVIAEKGRAAAAHLRQTFRHAVQIGVPIALGTDAGVGAHGSNAREFRYMVENGLTPAQALLAGTANAARLLGTFDRVGTLEAGKLADVVAVPGNPIADITVTERPLFVMKDGVVVRRDAVR | 3% | 5% | 58% |
| 87 (protein, exemplary polypeptide) MTTRTRILTAFLSLLAANACAADAAPAAPHTVVLRAARMFDGASGKLVDHPQLTIVGNKIVRIAQGDKAEVPAGAEVVDLGDATLLPGFIDAHVHLSGQSSDNWYGDFFDNMMRFPAEQALYGAYYARITLEAGFTSVRDVGSTDWVALGLRNAIDAGKVPGPRMLVSNYAVGSTGGHADQDPIPPHKLPLAGPLQGVCNGPEECRAAVRYQIKYGANVIKFMPSGGVLSLSDPVDAPELSQDEMNAVIGESHAWGRKVAAHAHGDKAAKMAVAAGVDSIEHGSFIEDDTLRAMKAKNVYLVPTISAAAHVEEKIGTFPPVIAEKGRAAAAHLRQTFRHAVQIGVPIALGTDAGVGAHGSNAREFRYMVENGLTPAQALLAGTANAARLLGTFDRVGTLEAGKLADVVAVPGNPIADITVTERPLFVMKDGVVVRRDAVR | 65% | 166% | 53% |
| 89 (protein, exemplary polypeptide) MTTRTRILTAFLSLLAANACAADAAPAAPHTVVLRAARMFDGASGKLVDHPQLTIVGNKIVRIAQGDKAEVPAGAEVVDLGDATLLPGFIDAHVHLSGQSSDNWYGDFFDNMMRFPAEQALYGAYYARITLEAGFTSVRDVGSTDWVALGLRNAIDAGKVPGPRMLVSNYAVGSTGGHADQDPIPPHKLPLAGPLQGVCNGPEECRAAVRYQIKYGANVIKFMPSGGVLSLSDPVDAPELSQDEMNAVIGESHAWGRKVAAHAHGDKAAKMAVAAGVDSIEHGSFIEDDTLRAMKAKNVYLVPTISAIAHIEEKIGTFPPVIAEKGRAAAAHLRQTFRHAVQIGVPIALGTDAGVGAHGSNAREFRYMVENGLTPAQALLAGTANAARLLGTFDRVGTLEAGKLADVVAVPGNPIADITVTERPLFVMKDGVVVRRDAVR | 43% | 107% | 71% |
| 85 (protein, exemplary polypeptide) MTTRTRILTAFLSLLAANACAADAAPAAPHTVVLRAARMFDGASGKLVDHPQLTIVGNKIVRIAQGDKAEVPAGAEVVDLGDATLLPGFIDAHVHLSGQSSDNWYGDFFDNMMRFPAEQALYGAYYARITLEAGFTSVRDVGSTDWVALGLRNAIDAGKVPGPRMLVSNYAVGSTGGHADQDPIPPHKLPLAGPLQGVCNGPEECRAAVRYQIKYGANVIKFMPSGGVLSLSDPVDAPELSQDEMNAVIGESHAWGRKVAAHALGDKAAKMAVAAGVDSIEHGSFIEDDTLRAMKAKNVYLVPTISAIAHVEEKIGTFPPVIAEKGRAAAAHLRQTFRHAVQIGVPIALGTDAGVGAHGSNAREFRYMVENGLTPAQALLAGTANAARLLGTFDRVGTLEAGKLADVVAVPGNPIADITVTERPLFVMKDGVVVRRDAVR | 5% | 3% | 95% |
| 88 (protein, exemplary polypeptide) MTTRTRILTAFLSLLAANACAADAAPAAPHTVVLRAARMFDGASGKLVDHPQLTIVGNKIVRIAQGDKAEVPAGAEVVDLGDATLLPGFIDAHVHLSGQSSDNWYGDFFDNMMRFPAEQALYGAYYARITLEAGFTSVRDVGSTDWVALGLRNAIDAGKVPGPRMLVSNYAVGSTGGHADQDPIPPHKLPLAGPLQGVCNGPEECRAAVRYQIKYGANVIKFMPSGGVLSLSDPVDAPELSQDEMNAVIGESHAWGRKVAAHAHGDKAAKMAVAAGVDSIEHGSFIEDDTLRAMKAKNVYLVPTISAIAHLEEKIGTFPPVIAEKGRAAAAHLRQTFRHAVQIGVPIALGTDAGVGAHGSNAREFRYMVENGLTPAQALLAGTANAARLLGTFDRVGTLEAGKLADVVAVPGNPIADITVTERPLFVMKDGVVVRRDAVR | 66% | 91% | 33% |
